“And” between values parts separate entries of the source, which are not always exact repeats. Equal values may be shown once.

For test [1], the target named is HA ectodomain of A/Beijing/262/1995 (H1N1), recombinant, with C-terminal thrombin site, foldon and 6-His-tag (Influenza A virus A/Beijing/262/1995 …, strain). Description: SPR. The note with it: both partners purified.
Test [2] deals with HA ectodomain of A/Beijing/262/1995 (H1N1), recombinant (Influenza A virus A/Beijing/262/1995 …, strain). Description: SPR. As to conditions: both partners purified.
Test [3] has as its target HA ectodomain of A/New Caledonia/20/1999 (H1N1), recombinant (Influenza A virus A/New …, UniProt Q6WG00, strain). The experiment in a line: ELISA. As to conditions: both partners purified. (In general: An ELISA detects its analyte on a solid surface through an enzyme-linked reagent.)
The target of test [4] is HA of A/New Caledonia/20/1999 (H1N1) virus, in infected MDCK cells (Influenza A virus A/New …, UniProt Q6WG00, strain). Description: immunostaining of cells or tissue. As to conditions: one partner purified.
Test [5] addresses T1, HA trimer of A/Beijing/262/1995 (H1N1), thrombin- and trypsin-treated, for the immune complex (Influenza A virus A/Beijing/262/1995 …).
T1 construct: copies: 3 + 3
The experiment in a line: cryo-EM structure; 12H5 Fab with thrombin- and trypsin-treated BJ/1995 HA trimer. As to conditions: both partners purified.

Test [6] concerns the target HA ectodomain of A/Beijing/262/1995 (H1N1) (Influenza A virus A/Beijing/262/1995 …, strain). The experiment in a line: SPR. As to conditions: both partners purified.
The target in test [7] is HA of B/Florida/4/2006 (Yamagata) (Influenza B virus B/Florida/4/2006 …, UniProt E1TVD5, strain). Description: ELISA. As to conditions: both partners purified.

B1: C12H5, human-mouse chimeric version of mAb 12H5 (variable region of mouse 12H5, human IgG1 constant region) (antibody, V domains shown)
VH: QIQLVQSGPELKKPGETVRISCKASGYTFTKNGMNWVQQAPGKGLKWVGWINTYTGEPSYADDFKGRFAFSLETSASTAYLQINNLKNEDMAAYFCARMVRDAMDFWGQGTSVTVSS
VL: DIVLTQSPASLAVSLGQRATISCKASQSVDFDGYNYLNWYQQKPGQPPKLLIYAASNLESGIPARFSGSGSGTDFTLNIHPVEEEDAATYFCQQSNEDPYTFGGGTKLEIK
notes: also called MAb C12H5; C12H5 IgG; copies: 2 + 2
Turning to B1, in test [1], the koff (as a rule, the first-order rate constant of dissociation) is 0.00089 s⁻¹ and the kon (commonly a measure of how fast the partners come together) was 109000 M⁻¹ s⁻¹.

B2: C12H5 (human-mouse chimeric version of mAb 12H5) (antibody, V domains shown)
VH: QIQLVQSGPELKKPGETVRISCKASGYTFTKNGMNWVQQAPGKGLKWVGWINTYTGEPSYADDFKGRFAFSLETSASTAYLQINNLKNEDMAAYFCARMVRDAMDFWGQGTSVTVSS
VL: DIVLTQSPASLAVSLGQRATISCKASQSVDFDGYNYLNWYQQKPGQPPKLLIYAASNLESGIPARFSGSGSGTDFTLNIHPVEEEDAATYFCQQSNEDPYTFGGGTKLEIK
notes: also called chimeric 12H5 monoclonal antibody; MAb C12H5
For B2, the Kd (usually the free concentration of one partner at which half of the binding sites on the other are occupied at equilibrium, for simple one-to-one binding) in test [2] was 8.1 nM. In addition, the binding result in test [3] and in test [4] was “binds” throughout.

B3: 12H5 Fab (mouse antibody) (Fab, V domains shown)
VH: QIQLVQSGPELKKPGETVRISCKASGYTFTKNGMNWVQQAPGKGLKWVGWINTYTGEPSYADDFKGRFAFSLETSASTAYLQINNLKNEDMAAYFCARMVRDAMDFWGQGTSVTVSS
VL: DIVLTQSPASLAVSLGQRATISCKASQSVDFDGYNYLNWYQQKPGQPPKLLIYAASNLESGIPARFSGSGSGTDFTLNIHPVEEEDAATYFCQQSNEDPYTFGGGTKLEIK
notes: source: papain digestion of mAb 12H5 (mouse ascites, protein A), purified with DEAE-5PW
Take B3: in test [5], the stoichiometry N (commonly a count of units in the complex or per binding partner) came out at 3 Fab per HA trimer.

B4: C12H5 (chimeric 12H5 monoclonal antibody: variable region of mouse 12H5, human IgG1 constant region) (antibody, V domains shown)
VH: QIQLVQSGPELKKPGETVRISCKASGYTFTKNGMNWVQQAPGKGLKWVGWINTYTGEPSYADDFKGRFAFSLETSASTAYLQINNLKNEDMAAYFCARMVRDAMDFWGQGTSVTVSS
VL: DIVLTQSPASLAVSLGQRATISCKASQSVDFDGYNYLNWYQQKPGQPPKLLIYAASNLESGIPARFSGSGSGTDFTLNIHPVEEEDAATYFCQQSNEDPYTFGGGTKLEIK
notes: also called MAb C12H5; source: CHO cells, transient transfection, purified from culture media (MAbselect Sure)
As for B4, in test [6], the Kd was 8.85 nM; the koff was 0.0007 s⁻¹ and 0.00089 s⁻¹ and 0.00108 s⁻¹; the kon was 109000 M⁻¹ s⁻¹ and 122000 M⁻¹ s⁻¹ and 95300 M⁻¹ s⁻¹. The binding result in test [7] is given as “no binding”.

B5: CH65, chimeric version (antibody, V domains shown)
VH: EVQLVQSGAEVKKPGASVKVSCKASGYTFTDYHINWVRQAPGQGLEWMGWIHPNSGDTNYAQKFQGWVTMTRDTAISTAYMEVNGLKSDDTAVYYCARGGLEPRSVDYYYYGMDVWGQGTTVTVSS
VL: SVLTQPPSVSVAPGQTARITCGGNDIGRKSVHWNQQKPGQAPVLVVCYDSDRPSGIPERFSGSNSGNTATLTISRVEAGDEADYYCQVWDSSSDHVIFGGGTKLTVL
In the case of B5, the binding result in test [3] was “binds”.

These data come from publication PMC9439264 (Nature Communications, 2022).
